Measurements reported in a protein production outcome set (Wang et al. 2014).

Experiment: label from the status in PepcDB records
In the case of “MEKNVTPMIRQYLDIKKKYKDAVLFFRVGSFYEMFFDDAIEVSKLLNLTLTKRENVPMCGVPYHTSKEYIRKLILFDKKVAICEQASNSTSGGPLEREVVEVITPGVIIDEDFLNDDINNYLVAISDYKDYYSFSYIDLSTSSLGIMFYENGFFEKLKRDLEKYSPKEIIVSENFYYEYSEKLNLSRFLINRVPTWHLDKDIAIKTIKEHFNILGLSSLGFDEEKPYYISIFLIINHIKNNLKNLLSNIDKIDINNDSSYMFLDDVTQVNLELVKNNNDFSSQYSLYSVLNDCKTAMGKRLLREFILNPILNISEINTRLDHVEFFCKNISLTVTLRETFINIWDIERIISRIQMKRYIKKDFLFIEKALSVFFTVKKLFDKHNFDYWNFDKFEEDSISKVYFLINSAISSAPDELIKRGYDLKLDNLKDLKINANKYIDQYLESERLLSKINNLKIRKTNNRGLFFEVTKSNYAQVPPHFMESQALNSSKRYKTEKLISLEVDINNAEDNVVAFEQEIFDEIASNVVMHNKVLKKVAEFFAYIDLVVNFGYLAKKNEYKRPVLTSGKEILLEKSRHPVVEHYTKNTEIFTENFVRINKEKYFCLITGPNMAGKSTYLRQVALITLMAHIGSFVPASKALIGITDKIFCRIGASDNIAKGESTFLVEMNETANILRNATEKSLIIMDEVGRGTSTNDGLAIAYSIIEYILEYIKARSLFATHFHELSSINHQAFINLSMKIEKQGNDLVFLREVEEKPSLNSYGIYVARIAGLPLRVIDRANVILESLVGREGNSCLEFLPHVSSDGNDKEILKNDTDIHIKLNEYLELKNFISNIDINNITPFQSIELLNQIVLKVISQSS”, the protein production is reported as “failed”.
With “MEKRLDYITDLMALGPTANARTIQRRQTAHRLAIAEAWQVKPGEKILEIGCGQGDLSAVLADQVGSSGHVTGIDIASPDYGAPLTLGQAWNHLLAGPLGDRLTVHFNTNLSDDLGPIADQHFDRVVLAHSLWYFASANALALLFKNMAAVCDHVDVAEWSMQPTALDQIGHLQAAMIQGLLYAIAPSDVANIRTLITPDTLAQIAHDNTWTYTAGTIVEDPTLDDAHWEIATTNALLTELKLSTDLRDRVKPLLEAMSHNGTASLATFTGRITF” the protein production was “not failed”.
With “MEKRQDNNEIERRILKYEQYVKEHPKKAYGYYCLGRLHMMDGKYKLAEEYFKKSLAVDGNYTFSIIGLIEACVFRRKFLKAVYLFSKNRQKIIDKYIYRVKLVRGVSSFYSKSGFFRTEAKDFLSQLSLKNSIRSIKKLVDSEANNIVLKLILCMYYLNFGEKSFYIIQLFKTCIYWDGLEDSFRWALIRRLSEFGEKLYYDANIARKFATVPDASCTDEYVDLIFSSALDREKGGRMADIYRTAEKYNKNISPRLIWRYVKWSNENSFYDPSVYDCCKKLVDMGWMDSVVADTMLKFRERNAVKLGDETERALRLFGYMD” the protein production was “failed”.
With “MEKSLETVPGLDLSGEDIEMYYQYVRFVDRFLRFNRNYQIEYFKLSYPGDGSSEREVDLLKRWIDTVIQLKVKDLDFFDYSWEWGFDNFQLPSTIYICESLVSLKLSTVTLPSVKSVSLPFLRVLKLGAVKFADHLDLETLISGCTALETLAIRFFDRVQVLQVSSQSLLSFTHVAPKLVFTHAVRKPLAEKDLSIVIDAPRLEYLKLSDHQTSSFIIKNPGSLVAVDIDINLSSGFDSRNMIRDFLVGISSVKNMTISSIILKFYDYRFKMLPTFLEICPNLKSLILKSTEELGIKESSMFSGPQDFLPSLEYVEMKMPLKKGLLLEIRMLVGYFLEKATILKKLTLCLDDYRKRKESLIPRILAIPRISTSCEVVVL” the protein production was “failed”.
With “MEKSLLVIVRHKPGRTRLLIRALQSINDQTFKKINIIIFCMEEELKCHNVDDFYLKELSNIYSVIYDENCIFNAIKMSESNYLCFMDDDDSWAPEYVSRLLSVLANIQSTYSSVNAIACHTNKVAEIAENNRIIINSTQPWNHYLNAGPVSFDVIYYRNSIPLSSCLFDRNSVIDVIESHKLSSPAFFWPFFIHYLAENDVWILPEALAFYHFRENDDFEFGNYTVINNELFDIECKIAENKMMRSIDDSSLLNVLLSNIANNSLFHKISYIENKIK” the protein production was “failed”.
In the case of “MEKSNLYKVDEFGVKNYNYGILAILSFVLFAFINISLGYVTFVAETAVEGSPVKNYADAFWLMLMSSTTIGFGDVYPITLEGRIAVFTMFILGVGILGGVGAVFANKIFGFADTNIKNRELRQQNEEILLQNDKIYQKLTALEDKLEAFNRETK”, the protein production is reported as “failed”.
With “MEKSNVFLLSILLMASLFSISHAFQLWGYAIDRVSIRGVVYCSLDGDPSAPPVSNATVYIECPGGSNSTLAQAVTNQVGVFTLPWLMFIANYAIGASRQ” the protein production was “failed”.
For “MEKVHLYWNLRYNCWFLVSVEHLWYSQGKVPGVHGFVILPVFLTLLEQPFSTTKKDITQLRSPSSESLSSSNAVNYRAIRGSHSYFGIYGI”, the protein production was “failed”.
With “MEKVLTDLDRVNIAKQEYELGSQLDTLVKIMSQDKVLPIGKVAHVQDGGKETGEQIYTITPNGTLDKPEDVKEVTVLFKGSTAPFGGDDWKTDWFKNDIPIASKLLLKKFGSQSVSHKQGTKQLEQSAHLLKEVMNKYPNAKISVYGHSLGSMNAQYAIAELDDNQIYRVQGAWIYNGPNLYSILTDKQKEQVDKIKGVVNNYVDSKDKIGIGYPKEGSDNAVGIVKIVDSKAVSGGSWVANFTNQHIWGGYQYNPDGSLKLAEDKFAYKENYSVVHTNVNQRMHAIKAKLSSFKSTGKEVSKNQAIFLDSQQAKVISSGLVTISKEAVEEVKKVEQKAVAKAEELYQSLKVAPTGVTELSPQELEEAYAQSGVSYASIVGEAQTFFSNKTQAAESISHAYVELENQINKGVEAMLRQDSNLSGEFKQWH” the protein production was “failed”.
With “MEKVTLIATATMGLEALVAREVKDLGYEDVKVENGKVTFTSDVAAIPRANLWLRTADRVKLKVGEFKALTFDELFEKTKSLPWADIIPVHAEFPVIGRSVKSKLFSVSDCQAIVKKAVVESMKKRYKRGWFDENGPLYRIEVALHKDIATLTIDTSGTGLHKRGYRYLHSQAPLKETLAAAIIMLSHWKSDRPFADPFCGSGTIPIEAAMIGQNIAPGFNREFVSEQWHWIGSEHWDRAREEVEDMANYDQPLDILGSDIDHRMVELAQNNAMEAGFGDLISFKQMQVTDFRHKEEYGILIGNPPYGERIGEREEVEKMYQKMGEVFREHLETWSIYILTSHEGFEELYGKRATKKRKLYNGNIKTDYYQFFGPRPPRHPEGSQQ” the protein production was “failed”.
With “MEKYSQVIFDKNTVEFVTVAAEFCGFLERARDMKRYDFVDTALKILPLLYLKATLLPPCEPIGEDEPETFVTEEDYELIRRAIAGVLGAKDDYLEVFLPDMVYSDTPIKKCISEDLADIYQDLKDFISVFQLGLNETMNDSLVVCKEHFREFWGQRLVNTMRALHDVKYSPLEHHHHHH” the protein production was “not failed”.
For “MELGLYTFADVNPNPADGRGPEGARRLRELLEEIELADQVGLDVFGLGEHHRPDYVVSSPSTVLAAAAVKTKNIRLTSAVSVLSSDDPVRVFQQFSTVDLLSNGRAEIMAGRGSFIESYPLFGYDLEDYDVLFAEKLDLLLALREQEVVTWSGTKHPAINGRGVYPRPLQERLPVWIAVGGTPQSVARAGAMGLPVALAIIGGEYRRFAPLFDLYHEAARRAGQEKTKLRTSINVHGFIADTTDKAADQFYGPQAEVMNRIGRERGWGPTNRAHFDAARGPEGNLFLGEPELVAEKIIKAHGVFKNDRFLLQMAIGLMPHDQIMRGIELYGTKVAPLVRKELTGSADPVKATA”, the protein production was “not failed”.
For “MELKQSLSTHLEAEKPLRRYGAVEETAWKTERLGRNQLDIISMAETTMMPEEIELEMAKIQRLREVLVRRESELRFMMDDIQLCKDIMDLKQELQNLVAIPEKEKTKLQKQREDELIQKIHKLVQKRDFLVDDAEVERLREQEEDKEMADFLRIKLKPLDKVTKSPASSRAEKKAEPPPSKPTVAKTGLALIKDCCGATQCNIM”, the protein production was “failed”.
With “MELPEKPQLYLITPPEFELSSFPDVLARVLDTHKVACVRLELAARDEDTVSRAADALREVTHARDIALVLSDHSVLADRLGLDGVHLSDAARSVRETRKLLGEDAIIGSFCGTSRHDGMSAGEAGADYICFGPVAASSLGDGSYVAQEVFEWWSEFIEVPVVAEGGLDAARIAQLTPFTDFFAFGQEVWSAEYPAQRLGELLEAMG” the protein production was “failed”.
With “MELPVVVQQALGDNAPGVSFRSVSQIDTGHLLRMVLLSDDQGNLQAICRRNDMLDLEALNKRLGRDLRMMQRREQVRVRQKAGLQELPALPSLTGWPTVVDRRVDELEAVALELGEQDLGLMMPAEDFRQLTAKAARHDFAVDTANISVNLDNHAADRDQLHSAIKRFTGLRIQQRLEDTLELPPLPETAQRIIHLRVNPNAVMGDLVDVVESDPSLAAQVVSWASSSFYAAAGRVHSVHDAVSRVLGFDLVMNLAMGLALGRALKHPQDHPDGYVDYWQQAIWQAQSAGILASMMPRGQRPLFGLAYLAGLLHNFGHLVLAQVFPPHFKLVCRSLEVSPHIDSSVIEHYLLGITREQIAAQLMENWGMPDEVTLAIRYQKNPAYDGPHNVYARLLWLGRQLLTERGVALGAGESATQAVYDELGLDRELVQEQFDELVRRKDSIMAMAGMMSQGG” the protein production was “not failed”.
With “MELQLAIDLLNKEEAAKLAQKVEEYVDIVEIGTPIVINEGLPAVQHLNENINNAKVLADLKIMDAADYEVSQAVKYGADIVTILGVAEDASIKAAVEEAHKHGKALLVDMIAVQNLEQRAKELDEMGADYIAVHTGYDLQAEGKSPLDSLRTVKSVIKNSKVAVAGGIKPDTIKDIVAEDPDLVIVGGGIANADDPVEAAKQCRVAIEGK” the protein production was “failed”.
For “MELREWQSKIAEKIVEALRNNFLVSLQAPTGSGKTLFALYTALKVKPKVAFVVRTHNEFFPVYRELSLHFKDKKYGFLVGKSSACVFSSSDVDAQDIYCNGCEIFNASAVTVTDSPKVSLNKLKEEGKKLGFCPYYSLLETIKTADVILLTYPYLFIPWLRESLDINWEDYVVIVDEAHNIENVSNIEEKKLNKRIIEMAISQSHSQNVKVILERLKENVEKAVYSEDKYILIEKDKLDNILPSNEEIEILSEEYDEIRKIMIKNKTVSRNYLGSILRFFDLVNDEGIRVFSYSGSLIAKYIIPSYFTDILNDEKITYMLMSGTMQPLDYLRNIIGIKRKILYIDAEKVMKKRLTGTYECLISIDVTTTYSLRSEQMARKYASYLLKIFYNSRRHVLAIFPSYEFMRIVSKFLNIRYLAEDTETSIEEIMSNLKKEKTIIMGIARGKLAEGIEIVENGSSLISDVAMVGIPYPPIDDYLKIRVEEISKILKKDISNELISIQALIAVKQSIGRAIRGPTDNATIWLLDKRYDSLWWKKELNCLNARKIKL”, the protein production was “failed”.
With “MELSAVGERVFAAEALLKRRIRKGRMEYLVKWKGWSQKYSTWEPEENILDARLLAAFEEREREMELYGPKKRGPKPKTFLLKAQAKAKAKTYEFRSDSARGIRIPYPGRSPQDLASTSRAREGLRNMGLSPPASSTSTSSTCRAEAPRDRDRDRDRDRERDRERERERERERERERERERGTSRVDDKPSSPGDSSKKRGPKPRKELPDPSQRPLGEPSAGLGEYLKGRKLDDTPSGAGKFPAGHSVIQLARRQDSDLVQCGVTSPSSAEATGKLAVDTFPARVIKHRAAFLEAKGQGALDPNGTRVRHGSGPPSSGGGLYRDMGAQGGRPSLIARIPVARILGDPEEESWSPSLTNLEKVVVTDVTSNFLTVTIKESNTDQGFFKEKR” the protein production was “failed”.
In the case of “MELSFRIWLGGLGMLISLLILYFKAVPELEEFHKNCTLKQNWEQPFKKVKNLTLILSISLLSIIGFFLMFINLVNINPI”, the protein production is reported as “failed”.
In the case of “MELVIILLALSLLMFVAYRGFSVILFAPIFALFAVFLTEPSYVLPFFSNIFMEKMVGFIKLYFPVFLLGAIFGKVVEMSGIADSIAKTIIELVGEKRTILAIVLMGAILTYSGVSVYVVVFAVYPFAAKLFRQANIPKRLIPGTIVLGAVTFTMDALPGSPQIQNVIPTTFFKTDIYAAPILGIVGAIFVLTVGLLYLESRRKKAKAEGEGYFGFNDGNTEMAASLQVEQKNMPLTNNIEITRAQQLITFIPLILVGVMNKVFTIMIPKWYPSGFDFSAIGMKAFGKVELSAVVGIWSVELALIIGILTTLLLYWKRVVTGFQAGLNTSIGGALLATMNTGAEFGFGGVIAALPGFAIMRDGISATFTNPLVNGAVTTNILAGITGSASGGMGIVLSAMGDKFIAAANQFDIPLEVMHRIVSMASGGMDTLPHNGAIITILTVTGLTHKQSYKDIFAITILKTVAVFLVIAFYTLTGLY”, the protein production is reported as “failed”.
